Measurements published in PMC12714728 (2025).
Positions of bridges follow the written chain, without caps; N, C: chain ends. Non-standard residues stand in square brackets, D forms with d. No end group written: not given here.

B1: cyclic peptide CP3 (peptide)
chain: PPLYEDPLGVAGGMG
modifications: also: one Pro of the Pro-Pro template is D, which not given here, cyclic peptide, ring closure not given here
B2: cyclic peptide CP8 (peptide)
chain: CLYRDPLGVAGGMGC
modifications: disulfide 1-15
B3: cyclic peptide CP1 (peptide)
chain: [dP]PVSLYEDPLGVAGGMGVY
modifications: also: cyclic peptide, ring closure not given here
B4: cyclic peptide CP2 (peptide)
chain: P[dP]SLYEDPLGVAGGMGV
modifications: also: cyclic peptide, ring closure not given here
B5: cyclic peptide CP6 (peptide)
chain: PGLYEDPLGVAGGMG
modifications: also: cyclic peptide, ring closure not given here
B6: cyclic peptide CP4 (peptide)
chain: PGVSLYEDPLGVAGGMGVY
modifications: also: cyclic peptide, ring closure not given here
B7: cyclic peptide CP14 (peptide)
chain: LYEDPLGVAGGMG
modifications: non-template-based cyclic peptide (direct head-to-tail cyclization)
B8: cyclic peptide CP13 (peptide)
peptide: CYRDPLGVAGEMC
modifications: also: cyclic peptide, ring closure not given here

Target: T1, H1N1 A/New Caledonia/20/1999 hemagglutinin ectodomain, biotinylated HA0 (influenza A virus A/New …, biotin on the BirA site)
Test: SPR

Row | Binder | koff
1 | B1 | 0.45 s⁻¹
2 | B2 | 0.23 s⁻¹
3 | B3 | 0.02 s⁻¹
4 | B4 | 1.08 s⁻¹
5 | B5 | 0.42 s⁻¹
6 | B6 | 0.06 s⁻¹

Target: T2, H5N1 A/Vietnam/1203/2004 hemagglutinin ectodomain, biotinylated HA0 (influenza A virus A/Vietnam/1203/2004 …)
Test: SPR

Row | Binder | koff
7 | B1 | 0.76 s⁻¹
8 | B2 | 0.98 s⁻¹
9 | B3 | 0.14 s⁻¹
10 | B5 | 0.95 s⁻¹
11 | B6 | 0.32 s⁻¹

Target: T3, H1N1 A/California/07/2009 hemagglutinin ectodomain, biotinylated HA0 (influenza A virus A/California/07/2009 …, biotin on the BirA site)
Test: SPR

Row | Binder | koff
12 | B1 | 1.07 s⁻¹
13 | B2 | 0.1 s⁻¹
14 | B3 | 0.01 s⁻¹
15 | B4 | 3.48 s⁻¹
16 | B5 | 0.83 s⁻¹
17 | B6 | 0.04 s⁻¹

Target: T1, H1N1 A/New Caledonia/20/1999 …
Test: SPR
Remark: another data set of the same source

Row | Binder | Kd
18 | B7 | 640 nM
19 | B1 | 1180 nM
20 | B8 | 32000 nM
21 | B2 | 850 nM
22 | B3 | 20 nM
23 | B4 | 3080 nM
24 | B5 | 800 nM
25 | B6 | 360 nM

Target: T2, H5N1 A/Vietnam/1203/2004 hemagglutinin …
Test: SPR
Remark: another data set of the same source

Row | Binder | Kd
26 | B7 | 2740 nM
27 | B1 | 2040 nM
28 | B8 | 8910 nM
29 | B2 | 320 nM
30 | B3 | 1800 nM
31 | B5 | 3020 nM
32 | B6 | 290 nM

Target: T3, H1N1 A/California/07/2009 hemagglutinin …
Test: SPR
Remark: another data set of the same source

Row | Binder | Kd
33 | B7 | 1070 nM
34 | B1 | 2390 nM
35 | B8 | 12000 nM
36 | B2 | 330 nM
37 | B4 | 7280 nM
38 | B5 | 1910 nM
39 | B6 | 120 nM
